Target: purified monomeric human β-actin (G-actin) (human, UniProt P60709 1-375)
Experiment: pull-down

B1: sv1_(360–420ARM) peptide (peptide)
peptide: not shown
modifications: amino-terminal biotin
**Q.** Does B1 bind?
**A.** Result: binds

Reference: article PMC3286128 (Biochemistry, 2012)
